Source: the supplement of paper PMC9170038

System: K4 kissing-loop RNA reporter
Experiment: apparent KD of K4 kissing-loop reporter; higher = weaker reporter binding
Settings: Eterna round: R107
Procedure: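 RNA-MaP round R107: designed RNA switches with theophylline, tryptophan, arginine or FMN aptamers are transcribed on-chip within common flanks. They are titrated with a labelled K4 kissing-loop RNA reporter in RNA-MaP buffer (100 mM Tris pH 7.5, 80 mM KCl, 4 mM MgCl2), without ligand or with the indicated ligand. Median apparent KD per design.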

[1] = input ligand: theophylline 20 uM
[2] = input ligand: tryptophan 2.4 mM
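Further: bound reporter read as fluorescence of individual clusters on recovered sequencing chips by microscopy, with normalized cluster intensities fitted with a binding model.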

| Sequence | apparent KD of K4 kissing-loop reporter (input ligand: FMN 200 uM) [nM] | apparent KD of K4 kissing-loop reporter (input ligand: arginine 13.2 mM) [nM] | apparent KD of K4 kissing-loop reporter (input ligand: none) [nM] | apparent KD of K4 kissing-loop reporter [1] [nM] | apparent KD of K4 kissing-loop reporter [2] [nM] |
| --- | --- | --- | --- | --- | --- |
| AGCGACUCUUCGGAGUCGCGGCUAAGGGAUACCAGUGAUGUUGGUCACCCUUGGCAGCCCAGAAGCCAAGCCACCAAAGGUGGCA [Omei KL Theo A Exc A v5] | 104 | 98.6 | 111 | 114 | 113 |
| GCCGUAGAUUGAAGGAGCGUGGAACUAUGGCUUGAACAGUGAUGUUGUUUAUCUAGGUAGCCACAGGUAGGUCGCAAUCUACGGC | 266 | 201 | 234 | 182 | 178 |
| AGAAACUUGUAUGUCGAGUGUGCGCGCGAUACCAGCCAAAUGGAUGGCCCUUGGCAGCGCUGCGAGUGAUGUUCGCCCGCUUGAC [#18 K4 Theophylline A Exclusion] | 210 | 244 | 203 | 192 | 174 |
| GCCGUACGCAUGGAUACCAGUCAAGAUCAGUGAUGUUGAUCUUUUAUAGAGCCUUCAUUAGACCCUUGGCAGCCAUGCGUACGGC | 429 | 237 | 391 | 373 | 250 |
| ACGACGCAUAGUGAUACCAGCACAAUAUGAGUGAUGUUCAACAUAUAAAUGUAAUAAUUAUGCCCUUGGCAGCACUAUGCGUCAG [KL-SSTheoB1] | 658 | 660 | 793 | 707 | 591 |
| AACACCCGCUAUGAUACCAGUGAAGUGAUGUUUUACUCCGGGCGUAAGACAAAGGUCAGCCACCCUUGGCAGCAUAUCCGCGUAU [theeternabot_exclusion_KL_Theo_B_35] | 721 | 418 | 594 | 490 | 440 |
| AGAACUGUCUGAGAUACCAGCUAAGGAGUGAUGUUCCUAGCUCCACGAAAGUGGAGCCAUAGCCCUUGGCAGCUCAGACAGUUCA [Omei KL Theo B SS A v6] | 866 | 588 | 1050 | 584 | 747 |
| AACGUUUUGAGAAGGAGCGCGUUAAGCAGUGAUGUUGCUGUAUUUUAUCCAAUUCAUAUAUCGCAGGUAGGUCGCUCAAUACGUA [JR_Nu_SSArginiB_Sub027] | 574 | 496 | 557 | 534 | 432 |
| AAAGAUCUUCUAGAAACUAGAAGAUCAAGAGAGGAUAUCCGAAUUCGGAGAAGGCUCACUAAGUGAUGUUUGGAGCCAAUGGCAA [AK2 SS FMN A] | 1060 | 1100 | 1210 | 1090 | 932 |
| UGGACCUGACUCGAUAAGAGUCAAUGGGAUACCAGCCACGAAAGUGGCCCUUGGCAGCUCUACCAGUGAUGUUGGUCAAGGUCCU [#SwitchBubble 8 #StaticStem] | 1050 | 511 | 860 | 716 | 899 |
| UGAUAGGACAGAAGGAGCGGAAGUGAUGUUUCCAAAAGAUAUGGUCGACAAAGUCGACUUUUCCAGGUAGGUCGCUGUCCUAUCU [KL-XARG-B18] | 60.4 | 90.1 | 67.1 | 84.1 | 66.6 |
| UAAUUUAUCGCAGGAUAUAGCCAUAAACCGGUCCUAAGGGACCUUCUGGGCAGUGAUGUUGCCCGGCUAGAAGGGCGAGUUCACC [Anenlagema] | 115 | 105 | 116 | 103 | 105 |
| CGAGUGAUGUUCGUUCGUUUAUUUCUUUGACAGGAUAUGCGGAAACGCAGAAGGGUCACCUUUGAGUUAAAGGAAUUUACGUUAU [Ex FMN A 26] | 572 | 509 | 599 | 539 | 483 |
| AAACGCUGGAUGAAUAACAUCUAGCGAAUUCGAGGACCGGUACGGCCGCCACUCGAGCUAACUGCGAGUGAUGUUCGAUAAUAAA [Mat - Mod of OpenEnded 3 - D1] | 306 | 451 | 441 | 524 | 80.9 |
| CUUCAGAUCUGAAGGAGCGCGUUACCAGAAUGCAUCAUAGAGCAGUGAUGUUGCUCUGGAUCGCAGGUAGGUCGCAGAUCUGACG [Arg B Ex t7b] | 196 | 189 | 189 | 156 | 195 |
| AUUUUCAAUUUAUUAUAUAACUUUUCAGAAGGAGCGUGGAAGUUCACAGGUAGGUCGCUGAAUAUAGGACUAGUGAUGUUAGUUA [JR_Nu_SSArginiA_Sub023] | 284 | 247 | 279 | 268 | 258 |
| AUCACAGUGAUGUUGUGAUAUGGUACAGAUACCAGACUAGUGCUAGUCCCUUGGCAGCUGUACUCAGCAGCACCACUAGCACUCG [Theo A Ex t6b] | 147 | 131 | 145 | 153 | 128 |
| UUGUGCAGCAAACGAGUGAUGUUCGACGAUACCAGCCUCGAUAGAGGCCCUUGGCAGCGUAAUAAUCACAGCCAAGGGCUGCACU [#SwitchBubble 4] | 651 | 535 | 749 | 774 | 560 |
